Assay results from patent US20260234223A1 (LEYDEN LABORATORIES B V, published 2026).

What was measured:
hCoV-229E Spike antigen [1] = target: T1, hCoV-229E Spike antigen (human coronavirus 229E, UniProt P15423 16-1110); test: MSD multiplex binding assay, Coronavirus Panel 3
T1 sequence: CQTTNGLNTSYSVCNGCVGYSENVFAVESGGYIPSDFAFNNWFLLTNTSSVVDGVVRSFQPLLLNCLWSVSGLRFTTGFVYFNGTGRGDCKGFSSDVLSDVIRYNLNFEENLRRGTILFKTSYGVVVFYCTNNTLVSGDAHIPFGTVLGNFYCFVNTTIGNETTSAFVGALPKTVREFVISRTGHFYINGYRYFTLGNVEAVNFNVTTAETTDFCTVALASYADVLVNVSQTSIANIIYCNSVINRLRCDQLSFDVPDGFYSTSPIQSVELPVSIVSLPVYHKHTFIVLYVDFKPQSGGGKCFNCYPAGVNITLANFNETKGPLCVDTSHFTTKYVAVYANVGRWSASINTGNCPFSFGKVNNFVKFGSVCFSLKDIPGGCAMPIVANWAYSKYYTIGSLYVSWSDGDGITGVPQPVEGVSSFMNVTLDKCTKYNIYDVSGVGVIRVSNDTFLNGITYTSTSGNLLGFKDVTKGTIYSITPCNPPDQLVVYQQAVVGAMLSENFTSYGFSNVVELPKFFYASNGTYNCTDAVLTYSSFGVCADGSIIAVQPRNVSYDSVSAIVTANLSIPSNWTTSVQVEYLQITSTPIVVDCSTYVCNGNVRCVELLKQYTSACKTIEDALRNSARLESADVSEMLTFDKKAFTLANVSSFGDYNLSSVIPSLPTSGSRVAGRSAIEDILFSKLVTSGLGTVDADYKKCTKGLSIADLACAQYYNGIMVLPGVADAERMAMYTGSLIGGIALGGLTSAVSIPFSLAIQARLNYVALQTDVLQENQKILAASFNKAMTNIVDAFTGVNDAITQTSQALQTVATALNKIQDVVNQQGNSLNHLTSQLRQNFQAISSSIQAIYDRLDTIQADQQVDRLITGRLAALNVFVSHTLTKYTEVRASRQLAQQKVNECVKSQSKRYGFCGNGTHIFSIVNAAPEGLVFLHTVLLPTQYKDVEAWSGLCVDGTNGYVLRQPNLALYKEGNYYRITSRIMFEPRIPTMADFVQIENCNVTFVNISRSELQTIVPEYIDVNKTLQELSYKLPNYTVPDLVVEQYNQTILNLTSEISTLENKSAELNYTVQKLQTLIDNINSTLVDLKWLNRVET

hCoV-229E Spike antigen [2] = target: T1, hCoV-229E Spike antigen; test: cell-based or functional assay
SARS-CoV-1 Spike antigen [3] = target: T2, SARS-CoV-1 Spike antigen (SARS-CoV-1, UniProt P59594 14-1190); test: cell-based or functional assay
[4] = target: T3, SARS-CoV-2 Spike antigen (Wuhan, wildtype) (SARS-CoV-2 (Wuhan), UniProt P0DTC2 14-1208); test: cell-based or functional assay
[5] = target: T4, human coronavirus NL63 Spike antigen (human coronavirus NL63, UniProt Q6Q1S2 19-1291); test: cell-based or functional assay
T4 sequence: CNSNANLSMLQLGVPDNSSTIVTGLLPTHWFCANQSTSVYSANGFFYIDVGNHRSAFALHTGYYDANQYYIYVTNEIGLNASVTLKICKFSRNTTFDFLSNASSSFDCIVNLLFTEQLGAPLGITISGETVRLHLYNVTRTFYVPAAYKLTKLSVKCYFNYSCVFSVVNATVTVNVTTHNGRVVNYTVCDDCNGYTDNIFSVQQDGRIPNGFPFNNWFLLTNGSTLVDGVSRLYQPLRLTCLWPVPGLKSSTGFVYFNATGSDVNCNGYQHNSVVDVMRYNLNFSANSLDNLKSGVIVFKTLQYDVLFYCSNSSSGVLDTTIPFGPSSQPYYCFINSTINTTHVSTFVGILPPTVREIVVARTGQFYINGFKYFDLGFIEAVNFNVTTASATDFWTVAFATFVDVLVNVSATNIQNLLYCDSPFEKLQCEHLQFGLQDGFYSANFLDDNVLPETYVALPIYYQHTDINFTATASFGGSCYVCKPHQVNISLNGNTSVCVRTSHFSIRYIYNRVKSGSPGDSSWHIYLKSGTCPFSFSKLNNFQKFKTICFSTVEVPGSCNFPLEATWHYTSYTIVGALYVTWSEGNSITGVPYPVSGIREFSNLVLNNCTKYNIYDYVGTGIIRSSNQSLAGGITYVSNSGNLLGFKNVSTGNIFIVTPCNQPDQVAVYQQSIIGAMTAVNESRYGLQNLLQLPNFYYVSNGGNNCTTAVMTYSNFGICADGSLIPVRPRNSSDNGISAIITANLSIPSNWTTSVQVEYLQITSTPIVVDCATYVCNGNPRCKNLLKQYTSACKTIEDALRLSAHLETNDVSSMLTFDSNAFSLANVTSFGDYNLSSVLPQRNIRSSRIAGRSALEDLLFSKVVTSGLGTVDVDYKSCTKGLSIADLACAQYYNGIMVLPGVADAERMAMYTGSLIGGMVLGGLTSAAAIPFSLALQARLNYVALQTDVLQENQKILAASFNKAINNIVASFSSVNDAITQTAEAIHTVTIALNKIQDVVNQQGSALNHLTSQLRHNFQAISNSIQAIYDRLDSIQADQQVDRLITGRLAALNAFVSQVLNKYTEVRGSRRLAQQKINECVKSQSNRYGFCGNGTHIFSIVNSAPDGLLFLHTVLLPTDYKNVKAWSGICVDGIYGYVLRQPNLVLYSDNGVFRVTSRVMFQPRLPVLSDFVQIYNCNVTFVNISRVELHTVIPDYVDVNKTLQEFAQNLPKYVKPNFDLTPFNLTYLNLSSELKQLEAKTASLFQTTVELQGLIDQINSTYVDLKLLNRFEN

MERS-CoV Spike antigen = target: T5, MERS-CoV Spike antigen (MERS-CoV, UniProt K9N5Q8 18-1291); test: cell-based or functional assay
T5 sequence: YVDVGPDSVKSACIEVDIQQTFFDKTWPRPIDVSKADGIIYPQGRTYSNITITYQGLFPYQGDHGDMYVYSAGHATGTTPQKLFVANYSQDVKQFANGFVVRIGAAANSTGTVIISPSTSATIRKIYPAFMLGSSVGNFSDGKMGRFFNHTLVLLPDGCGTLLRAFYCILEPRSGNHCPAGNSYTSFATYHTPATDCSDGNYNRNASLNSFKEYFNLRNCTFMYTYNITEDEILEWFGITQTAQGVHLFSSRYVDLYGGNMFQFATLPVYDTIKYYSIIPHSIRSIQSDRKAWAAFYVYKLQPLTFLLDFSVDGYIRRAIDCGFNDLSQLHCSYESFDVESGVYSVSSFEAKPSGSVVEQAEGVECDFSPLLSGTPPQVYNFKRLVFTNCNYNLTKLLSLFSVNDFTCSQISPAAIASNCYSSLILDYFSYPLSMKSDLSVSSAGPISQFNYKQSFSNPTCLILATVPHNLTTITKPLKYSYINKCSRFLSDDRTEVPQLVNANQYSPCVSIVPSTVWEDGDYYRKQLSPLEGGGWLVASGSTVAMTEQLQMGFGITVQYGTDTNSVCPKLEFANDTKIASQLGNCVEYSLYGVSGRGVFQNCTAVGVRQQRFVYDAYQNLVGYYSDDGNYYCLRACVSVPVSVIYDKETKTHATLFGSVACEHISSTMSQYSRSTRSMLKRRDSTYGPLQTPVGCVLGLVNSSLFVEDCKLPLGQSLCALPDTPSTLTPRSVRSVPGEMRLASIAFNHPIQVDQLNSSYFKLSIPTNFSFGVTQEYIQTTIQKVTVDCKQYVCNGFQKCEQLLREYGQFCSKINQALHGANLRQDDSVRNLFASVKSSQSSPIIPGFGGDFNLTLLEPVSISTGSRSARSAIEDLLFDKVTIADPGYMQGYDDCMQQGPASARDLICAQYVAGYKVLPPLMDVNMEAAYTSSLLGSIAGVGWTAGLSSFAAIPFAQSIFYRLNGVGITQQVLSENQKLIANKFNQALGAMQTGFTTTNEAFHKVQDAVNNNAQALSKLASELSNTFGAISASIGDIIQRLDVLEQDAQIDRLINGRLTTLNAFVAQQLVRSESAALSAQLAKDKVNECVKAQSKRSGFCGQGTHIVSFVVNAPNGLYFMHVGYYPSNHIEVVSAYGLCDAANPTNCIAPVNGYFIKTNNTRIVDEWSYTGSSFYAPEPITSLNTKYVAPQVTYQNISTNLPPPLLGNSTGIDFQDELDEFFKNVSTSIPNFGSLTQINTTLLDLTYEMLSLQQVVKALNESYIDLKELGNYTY

SARS-CoV-1 Spike antigen [6] = target: T2, SARS-CoV-1 Spike antigen; test: cell-based or functional assay; remark: listed apart in the source
[7] = target: T3, SARS-CoV-2 Spike antigen (Wuhan, …); test: cell-based or functional assay; remark: listed apart in the source
[8] = target: T4, human coronavirus NL63 Spike antigen; test: ELISA on coated spike antigen

B1: COV30-14 (antibody, V domains shown)
VH: QVQLVQSGAEVKKPGASVKVSCQTSGYTFTSYYMHWVRQAPGQGLEWMGLITPSGDDTYYAQRFQGRVTMTRDTSTSPTYMELSSLTSEDTAVYYCAKMSRAGGFDVWGQGTLVTVSS
VL: EVVLTQSPGTLSLSPGERATLSCRASQSITGRYLAWYQQKPGQAPRLLMYGESSRVTGIPDRFSGGGSGTDFTLTISRLEPEDFAVYYCQHFASSPPTYTFGQGTKLEIR
notes: also called the antibody according to the invention; the antibody according to invention
- binding result (hCoV-229E Spike antigen [1]): no binding (tested: dilution range starting from 555 ng/ml)
- Pseudovirion neutralization IC50 (hCoV-229E Spike antigen [2]): > 250 µg/mL
- Pseudovirion neutralization IC50 (geometric mean) (SARS-CoV-1 Spike antigen [3]): 5.89 µg/mL
- Pseudovirion neutralization IC50 (geometric mean) [4]: 0.211 µg/mL
- Pseudovirion neutralization IC50 [5]: > 250 µg/mL
- Live virus neutralization IC50 (MERS-CoV Spike antigen): 3.68 µg/mL
- Live virus neutralization IC50 (SARS-CoV-1 Spike antigen [6]): 4.95 µg/mL
- Live virus neutralization IC50 [7]: 25.4 µg/mL
- binding result [8]: no binding (tested: range tested 10.0-0.000002 nM)
